The supplement of paper PMC10724198
± gives the standard deviation of the averaged measurements.

Key:
[1] = tested on: Saccharomyces cerevisiae; test: protein stability index of tFT-peptide fusion (C-terminal peptide) (PSI (0-1 scale)); higher = more stable (slower turnover)
Experimental: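 MPS profiling in S. cerevisiae of the tFT-X12 degron library: putative degron peptides plus stable controls, 12 aa, fused to the C-terminus of a sfGFP-mCherry timer. Cells are FACS-sorted into 8 mCherry/sfGFP bins and deep-sequenced. PSI runs from 0 (unstable) to 1 (stable). Backgrounds are wild type, das1Δ and doa10Δ at 30 °C, and wild type, das1Δ, cdc34-1 and cdc53-1 at 37 °C; 2-3 technical replicates each.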

[2] = tested on: Saccharomyces cerevisiae; test: as above; conditions: genetic background: wild type; temperature: 30 C
[3] = genetic background: cdc34-1, temperature: 37 C
[4] = genetic background: cdc53-1, temperature: 37 C
[5] = genetic background: das1 deletion, temperature: 30 C
[6] = genetic background: das1 deletion, temperature: 37 C
[7] = genetic background: doa10 deletion, temperature: 30 C
[8] = genetic background: wild type, temperature: 30 C
[9] = genetic background: wild type, temperature: 37 C
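Also: PSI is a weighted mean of sequencing reads over stability bins, variants kept only with over 10 reads, mCherry proximal and sfGFP distal, peptide attached via GGGS linker.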

Row | Sequence | protein stability index [1, 3] | protein stability index [1, 4] | protein stability index [1, 5] | protein stability index [1, 6] | protein stability index [1, 7] | protein stability index [1, 8] | protein stability index [1, 9] | protein stability index [2]
1 | GHYQGVCHRRIC | 0.657 ± 0.026 | 0.725 ± 0.019 | 0.64 ± 0.028 | 0.7667 ± 0.0054 | 0.18 ± 0.016 | 0.176 ± 0.024 | 0.368 ± 0.033 | 0.34 ± 0.015
2 | GIISMYVARRLG | 0.594 ± 0.037 | 0.689 ± 0.0079 | 0.661 ± 0.015 | 0.69833 ± 0.00068 | 0.149 ± 0.016 | 0.173 ± 0.034 | 0.3 ± 0.022 | 0.285 ± 0.019
3 | GKVGGRMWVWRV | 0.592 ± 0.041 | 0.73 ± 0.015 | 0.63 ± 0.013 | 0.72579 ± 0.00022 | 0.116 ± 0.014 | 0.129 ± 0.019 | 0.2406 ± 0.0022 | 0.257 ± 0.0031
4 | GLGVIFFLLGYG | 0.469 ± 0.028 | 0.507 ± 0.023 | 0.336 ± 0.033 | 0.5631 ± 0.0018 | 0.292 ± 0.019 | 0.327 ± 0.016 | 0.551 ± 0.051 | 0.429 ± 0.015
5 | GLLFWSGVVSWV | 0.2627 ± 0.0023 | 0.388 ± 0.058 | 0.243 ± 0.038 | 0.507 ± 0.0027 | 0.225 ± 0.0065 | 0.263 ± 0.038 | 0.504 ± 0.014 | 0.4 ± 0.0088
6 | GLLVFRCINLRC | 0.449 ± 0.013 | 0.47 ± 0.0085 | 0.429 ± 0.045 | 0.5558 ± 0.005 | 0.421 ± 0.021 | 0.357 ± 0.03 | 0.471 ± 0.017 | 0.357 ± 0.038
7 | GLPGYAWGRSGG | 0.6759 ± 0.0045 | 0.788 ± 0.02 | 0.743 ± 0.037 | 0.782 ± 0.012 | 0.776 ± 0.037 | 0.775 ± 0.029 | 0.7221 ± 0.0024 | 0.586 ± 0.22
8 | GLSLVCWIVVLG | 0.153 ± 0.033 | 0.202 ± 0.066 | 0.189 ± 0.037 | 0.347 ± 0.017 | 0.1899 ± 0.0016 | 0.178 ± 0.032 | 0.318 ± 0.0055 | 0.306 ± 0.014
9 | GLVVMFVIAGGG | 0.405 ± 0.0067 | 0.459 ± 0.008 | 0.284 ± 0.05 | 0.5057 ± 0.00061 | 0.2577 ± 0.0014 | 0.299 ± 0.034 | 0.464 ± 0.015 | 0.404 ± 0.015
10 | GMGRVLVEVLLC | 0.293 ± 0.0086 | 0.451 ± 0.036 | 0.317 ± 0.033 | 0.5187 ± 0.0023 | 0.0999 ± 0.0047 | 0.101 ± 0.021 | 0.0812 ± 0.017 | 0.165 ± 0.029
11 | GMLIYVIGGLSH | 0.652 ± 0.016 | 0.652 ± 0.04 | 0.435 ± 0.027 | 0.667 ± 0.017 | 0.438 ± 0.011 | 0.4464 ± 0.0034 | 0.626 ± 0.019 | 0.508 ± 0.06
12 | GMMLLRFIIRWY | 0.0773 ± 0.026 | 0.15 ± 0.027 | 0.141 ± 0.04 | 0.268 ± 0.0083 | 0.138 ± 0.0027 | 0.134 ± 0.03 | 0.212 ± 0.0061 | 0.173 ± 0.045
13 | GPFVRSALIFIF | 0.535 ± 0.04 | 0.582 ± 0.045 | 0.467 ± 0.021 | 0.603 ± 0.034 | 0.304 ± 0.0055 | 0.343 ± 0.026 | 0.547 ± 0.022 | 0.407 ± 0.018
14 | GRAVGLANFTIK | 0.659 ± 0.02 | 0.756 ± 0.033 | 0.641 ± 0.026 | 0.735 ± 0.015 | 0.65 ± 0.044 | 0.68 ± 0.042 | 0.7006 ± 0.0042 | 0.129 ± 0.012
15 | GRCGGPRSLGVG | 0.562 ± 0.036 | 0.589 ± 0.022 | 0.52 ± 0.022 | 0.5989 ± 0.001 | 0.5493 ± 0.0022 | 0.538 ± 0.012 | 0.5853 ± 0.0057 | 0.547 ± 0.07
16 | GSGCLFNRWRIL | 0.6956 ± 0.0048 | 0.7303 ± 0.0059 | 0.6487 ± 0.0063 | 0.733 ± 0.022 | 0.169 ± 0.034 | 0.196 ± 0.027 | 0.46 ± 0.0074 | 0.287 ± 0.045
17 | GSLLWSGWSTCY | 0.768 ± 0.018 | 0.811 ± 0.011 | 0.698 ± 0.058 | 0.826 ± 0.0092 | 0.6696 ± 0.0058 | 0.693 ± 0.022 | 0.763 ± 0.0077 | 0.761 ± 0.043
18 | GSWGGGWRYVGW | 0.761 ± 0.037 | 0.792 ± 0.016 | 0.663 ± 0.012 | 0.7947 ± 0.0036 | 0.664 ± 0.037 | 0.685 ± 0.023 | 0.759 ± 0.011 | 0.734 ± 0.033
19 | GTSDLIALLMLT | 0.688 ± 0.047 | 0.7275 ± 0.0021 | 0.607 ± 0.011 | 0.7058 ± 0.0013 | 0.361 ± 0.026 | 0.403 ± 0.045 | 0.601 ± 0.007 | 0.509 ± 0.083
20 | GTWCLAMARFCA | 0.615 ± 0.056 | 0.755 ± 0.016 | 0.662 ± 0.026 | 0.762 ± 0.047 | 0.351 ± 0.025 | 0.375 ± 0.025 | 0.606 ± 0.039 | 0.4775 ± 0.0038
